Positions count from the first letter of the chain named. A value given as a limit tells only on which side of the number the result lay.

Common to all, as to assay: cell-based or functional assay
The target of one experiment is human glucagon receptor (human, UniProt P47871 26-477).
For the next experiment, the target named is T1, human GIP receptor (human, UniProt P48546 22-466).
T1 sequence (looked up): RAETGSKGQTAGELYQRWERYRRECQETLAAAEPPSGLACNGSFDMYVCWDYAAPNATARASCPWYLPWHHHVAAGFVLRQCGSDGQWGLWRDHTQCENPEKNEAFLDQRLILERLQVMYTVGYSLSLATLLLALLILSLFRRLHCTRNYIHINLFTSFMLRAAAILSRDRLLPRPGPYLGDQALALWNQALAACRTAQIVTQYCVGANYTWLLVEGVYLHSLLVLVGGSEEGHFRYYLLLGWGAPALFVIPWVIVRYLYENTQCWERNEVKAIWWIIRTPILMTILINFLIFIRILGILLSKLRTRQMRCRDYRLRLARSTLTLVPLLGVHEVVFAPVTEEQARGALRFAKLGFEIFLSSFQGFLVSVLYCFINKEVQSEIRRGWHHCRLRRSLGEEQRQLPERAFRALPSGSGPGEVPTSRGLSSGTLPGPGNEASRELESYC

In the next experiment the target is human GLP-1 receptor (human, UniProt P43220 24-463).
Experiment [1] concerns the target T2, human gastric inhibitory peptide receptor (GIPR) (human, UniProt P48546 22-466).
T2 sequence (looked up): T1 sequence (looked up)

In experiment [2] the target is human GLP-1 receptor (GLP-1R) (human, UniProt P43220 24-463).
Throughout, for hGIPR cAMP EC50 ratio: reference of the scale not given here.
Throughout, for hGLP1R cAMP EC50 ratio: reference of the scale not given here.

Sequence of human glucagon receptor (P47871 26-477): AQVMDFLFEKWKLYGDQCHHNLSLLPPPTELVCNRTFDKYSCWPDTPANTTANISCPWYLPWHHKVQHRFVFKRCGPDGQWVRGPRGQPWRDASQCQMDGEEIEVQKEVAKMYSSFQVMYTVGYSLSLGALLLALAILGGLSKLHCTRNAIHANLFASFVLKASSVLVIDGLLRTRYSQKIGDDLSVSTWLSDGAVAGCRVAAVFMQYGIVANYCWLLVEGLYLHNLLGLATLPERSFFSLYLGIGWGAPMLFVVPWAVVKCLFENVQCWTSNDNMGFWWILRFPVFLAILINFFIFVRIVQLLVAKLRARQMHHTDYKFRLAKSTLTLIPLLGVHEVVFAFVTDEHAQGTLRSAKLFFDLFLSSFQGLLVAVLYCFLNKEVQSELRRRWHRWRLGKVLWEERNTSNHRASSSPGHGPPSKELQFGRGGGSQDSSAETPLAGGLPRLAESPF

B1: Example 2 (peptide)
peptide: YXEGTXTSDYSIXLDXKAQXEFIXYLIEGGPSSGAPPPS
modifications: Aib2; αMeF(2F)6; αMeL13; Orn16; K17((2-[2-(2-Amino-ethoxy)-ethoxy]-acetyl)2-(γ-Glu)-CO-(CH2)16-CO2H); Aib20; D-Glu24; C-terminal amide
Take B1: the “cAMP EC50” value with human glucagon receptor was over 10900 nM; with human GIP receptor, 2.64 nM; with human GLP-1 receptor, 6.52 nM.

B2: Example 380 (peptide)
peptide: B1 peptide with Y1X, X6F, X24E, Y25X
modifications: D-Tyr1; Aib2; αMeL13; Orn16; K17 conjugated to (2-[2-(2-Amino-ethoxy)-ethoxy]-acetyl)2-(γ-Glu)-CO-(CH2)18-CO2H; Aib20; αMeY25; C-terminal amide
For the molecule B2, in experiment [1], the “hGIPR cAMP EC50 ratio” value amounted to 0.374 ratio and the “hGIPR cAMP Rel EC50” value came to 0.142 nM. In addition, in experiment [2], the “hGLP1R cAMP EC50 ratio” value amounted to 0.115 ratio and the “hGLP1R cAMP Rel EC50” value came to 0.236 nM.

B3: Example 5 (peptide)
peptide: B1 peptide with Y10V, Y25X
modifications: Aib2; αMeF(2F)6; αMeL13; Orn16; K17((2-[2-(2-Amino-ethoxy)-ethoxy]-acetyl)2-(γ-Glu)-CO-(CH2)16-CO2H); Aib20; D-Glu24; αMeY25; C-terminal amide
In the case of B3, the “cAMP EC50” value is over 10900 nM with human glucagon receptor, 1.98 nM with human GIP receptor and 1.61 nM in the experiment with human GLP-1 receptor.

B4: Example 4 (peptide)
peptide: B1 peptide with Y10X, Y25X
modifications: Aib2; αMeF(2F)6; 4Pal10; αMeL13; Orn16; K17((2-[2-(2-Amino-ethoxy)-ethoxy]-acetyl)2-(γ-Glu)-CO-(CH2)16-CO2H); Aib20; D-Glu24; αMeY25; C-terminal amide
Take B4: the “cAMP EC50” value with human glucagon receptor was over 10900 nM; in the experiment with human GIP receptor, 1.03 nM; with human GLP-1 receptor, 2.02 nM.

B5: Example 1 (peptide)
peptide: B1 peptide with X16E
modifications: Aib2; αMeF(2F)6; αMeL13; K17((2-[2-(2-Amino-ethoxy)-ethoxy]-acetyl)2-(γ-Glu)-CO-(CH2)18-CO2H); Aib20; D-Glu24; C-terminal amide
In the case of B5, the “cAMP EC50” value in the experiment with human glucagon receptor was over 11400 nM; with human GIP receptor, 38.5 nM; in the experiment with human GLP-1 receptor it was 53.3 nM.

B6: Example 3 (peptide)
peptide: B1 peptide
modifications: Aib2; αMeF(2F)6; αMeL13; Orn16; K17((2-[2-(2-Amino-ethoxy)-ethoxy]-acetyl)2-(γ-Glu)-CO-(CH2)18-CO2H); Aib20; D-Glu24; C-terminal amide
As for B6, the entries for the “cAMP EC50” value with human glucagon receptor, with human GIP receptor and with human GLP-1 receptor were over 10900 nM, 9.24 nM and 19.4 nM, respectively.

B7: Example 372 (peptide)
peptide: XXEGTFTSDYSIXLDKKAQXEFIEXLIAGGPSSGAPPPS
modifications: D-Tyr1; Aib2; αMeL13; K17 conjugated to (2-[2-(2-Amino-ethoxy)-ethoxy]-acetyl)-(γ-Glu)-CO-(CH2)18-CO2H; Aib20; αMeY25; C-terminal amide
On to B7, for which, in experiment [1], the “hGIPR cAMP EC50 ratio” value came to 0.68 ratio and the “hGIPR cAMP Rel EC50” value came out at 0.0781 nM. In experiment [2], the “hGLP1R cAMP EC50 ratio” value was 0.0741 ratio and the “hGLP1R cAMP Rel EC50” value is 0.365 nM.

B8: Example 376 (peptide)
peptide: B7 peptide with E21A
modifications: D-Tyr1; Aib2; αMeL13; K17 conjugated to (2-[2-(2-Amino-ethoxy)-ethoxy]-acetyl)2-(γ-Glu)-CO-(CH2)16-CO2H; Aib20; αMeY25; C-terminal amide
For B8, in experiment [1], the “hGIPR cAMP EC50 ratio” value is 0.734 ratio and the “hGIPR cAMP Rel EC50” value was 0.0723 nM. In addition, in experiment [2], the “hGLP1R cAMP EC50 ratio” value was 0.159 ratio and the “hGLP1R cAMP Rel EC50” value is 0.17 nM.

B9: Example 374 (peptide)
peptide: B7 peptide
modifications: D-Tyr1; Aib2; αMeL13; K17 conjugated to (2-[2-(2-Amino-ethoxy)-ethoxy]-acetyl)2-(γ-Glu)-CO-(CH2)16-CO2H; Aib20; αMeY25; C-terminal amide
Take B9: in experiment [1], the “hGIPR cAMP EC50 ratio” value was 1.76 ratio and the “hGIPR cAMP Rel EC50” value was found to be 0.0468 nM. In experiment [2], the “hGLP1R cAMP EC50 ratio” value is 0.169 ratio and the “hGLP1R cAMP Rel EC50” value was determined as 0.19 nM.

B10: Example 379 (peptide)
peptide: B7 peptide with A28E
modifications: D-Tyr1; Aib2; αMeL13; K17 conjugated to (2-[2-(2-Amino-ethoxy)-ethoxy]-acetyl)2-(γ-Glu)-CO-(CH2)18-CO2H; Aib20; αMeY25; C-terminal amide
As to B10, in experiment [1], the “hGIPR cAMP EC50 ratio” value was found to be 0.672 ratio and the “hGIPR cAMP Rel EC50” value is 0.079 nM. Besides, in experiment [2], the “hGLP1R cAMP EC50 ratio” value was found to be 0.114 ratio and the “hGLP1R cAMP Rel EC50” value is 0.238 nM.

B11: Example 375 (peptide)
peptide: B7 peptide with K16X
modifications: D-Tyr1; Aib2; αMeL13; Orn16; K17 conjugated to (2-[2-(2-Amino-ethoxy)-ethoxy]-acetyl)2-(γ-Glu)-CO-(CH2)16-CO2H; Aib20; αMeY25; C-terminal amide
Take B11: in experiment [1], the “hGIPR cAMP EC50 ratio” value is 1.13 ratio and the “hGIPR cAMP Rel EC50” value worked out at 0.0471 nM. Further, in experiment [2], the “hGLP1R cAMP EC50 ratio” value was determined as 0.178 ratio and the “hGLP1R cAMP Rel EC50” value worked out at 0.152 nM.

B12: Example 377 (peptide)
peptide: B7 peptide with K16X, E21A
modifications: D-Tyr1; Aib2; αMeL13; Orn16; K17 conjugated to (2-[2-(2-Amino-ethoxy)-ethoxy]-acetyl)2-(γ-Glu)-CO-(CH2)16-CO2H; Aib20; αMeY25; C-terminal amide
For B12, in experiment [1], the “hGIPR cAMP EC50 ratio” value was 0.976 ratio and the “hGIPR cAMP Rel EC50” value worked out at 0.0544 nM. In experiment [2], the “hGLP1R cAMP EC50 ratio” value was determined as 0.199 ratio and the “hGLP1R cAMP Rel EC50” value was 0.136 nM.

B13: Example 378 (peptide)
peptide: B7 peptide with X25Y
modifications: D-Tyr1; Aib2; αMeL13; K17 conjugated to (2-[2-(2-Amino-ethoxy)-ethoxy]-acetyl)-(γ-Glu)-CO-(CH2)18-CO2H; Aib20; C-terminal amide
In the case of B13, in experiment [1], the “hGIPR cAMP EC50 ratio” value was 0.793 ratio and the “hGIPR cAMP Rel EC50” value worked out at 0.067 nM. Besides, in experiment [2], the “hGLP1R cAMP EC50 ratio” value worked out at 0.142 ratio and the “hGLP1R cAMP Rel EC50” value stood at 0.191 nM.

B14: Example 373 (peptide)
peptide: B7 peptide with E21A
modifications: D-Tyr1; Aib2; αMeL13; K17 conjugated to (2-[2-(2-Amino-ethoxy)-ethoxy]-acetyl)-(γ-Glu)-CO-(CH2)18-CO2H; Aib20; αMeY25; C-terminal amide
For the molecule B14, in experiment [1], the “hGIPR cAMP EC50 ratio” value came out at 0.287 ratio and the “hGIPR cAMP Rel EC50” value came to 0.185 nM. Further, in experiment [2], the “hGLP1R cAMP EC50 ratio” value was found to be 0.0621 ratio and the “hGLP1R cAMP Rel EC50” value came out at 0.436 nM.

For the origin of these results see patent publication US20220048967A1 (published 2022).
